In US20180038857A1:

Target: hCXCR3 (human) (UniProt P49682)
Test: cell-based or functional assay

Chain of hCXCR3 (human) (P49682 whole entry): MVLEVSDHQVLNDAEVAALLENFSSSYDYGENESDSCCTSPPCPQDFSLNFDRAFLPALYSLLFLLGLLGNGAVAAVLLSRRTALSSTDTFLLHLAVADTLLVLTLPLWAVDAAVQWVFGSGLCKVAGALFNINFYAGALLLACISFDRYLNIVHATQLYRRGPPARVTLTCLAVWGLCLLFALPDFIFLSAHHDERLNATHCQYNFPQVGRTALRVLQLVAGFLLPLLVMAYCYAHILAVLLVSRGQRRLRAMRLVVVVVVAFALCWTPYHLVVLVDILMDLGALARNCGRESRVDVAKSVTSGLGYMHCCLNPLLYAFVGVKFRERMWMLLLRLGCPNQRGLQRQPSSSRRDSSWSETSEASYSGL

- EC50, agonist activity in an Aequorin assay: 0.7 nM
B1: recombinant native ITAC (ligand, UniProt O14625 22-94, looked up)
chain: FPMFKRGRCLCIGPGVKAVKVADIEKASIMYPSNNCDKIEVIITLKENKGQRCLNPKSKQARLIIKKVERKNF
